Molecular target: T1, D2-KIR3DL2-IgG1-Fc (human, UniProt P43630 220-316, limits assumed)
T1 construct: domain: D2; also called D2 domain of KIR3DL2 as IgG1-Fc protein
Test: flow cytometry on HEK-293 cells expressing FLAG-KIR3DX1rep, anti-IgG-Fc detection (Fig. 4C)

T1 sequence (P43630 other isoform, or with tags, fused parts or gaps limits assumed): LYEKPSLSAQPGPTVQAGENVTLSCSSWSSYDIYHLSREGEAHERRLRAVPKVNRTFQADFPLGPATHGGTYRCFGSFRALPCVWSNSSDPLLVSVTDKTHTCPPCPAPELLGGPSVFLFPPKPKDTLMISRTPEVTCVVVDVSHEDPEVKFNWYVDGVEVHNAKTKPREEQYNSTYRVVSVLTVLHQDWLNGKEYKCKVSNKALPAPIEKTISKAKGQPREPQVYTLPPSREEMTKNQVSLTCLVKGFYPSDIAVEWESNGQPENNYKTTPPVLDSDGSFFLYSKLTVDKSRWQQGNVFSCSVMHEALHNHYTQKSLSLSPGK

B1: FLAG-KIR3DX1rep (receptor)
chain: QKICPHAGAQDKFSLSAWPSPVVPLGGRVTLSCHSHLRFVIWTIFQTTGTRSHELHTGLSNNITISPVTPEHAGTYRCVGIYKHASKWSAESNSLKIIVTGLFTKPSISAHPSSLVHAGARVSLRCHSELAFDEFILYKEGHIQHSQQLDQGMEAGIHYVEAVFSMGPVTPAHAGAYRCCGCFSHSRYEWSAPSDPLDIVITGKYKKPSLSTQVDPMMRLGEKLTLFCSSEISFDQYHLFRHGVAHGQWLSGGQRHREAFQANFSVGRATPVPGGTYRCYGSFNDSPYEWSAPSDPLQLYTTGNTKSTPLSFTESTPESDTPRPQGQSSNLHMLTGLSVAIISIGVCLSAFIGFWCYIKYHTTMANTEPTEGQRTDEEEPAAEETQEIIYAQLNHQALSQTGFPPASQCPHYLSEDPSIYITVHQAQAEARAAPSLWHKGHPR
notes: also called FLAG-tagged full-length KIR3DX1-repaired; full-length KIR3DX1 in its repaired form as cell surface receptor
Does B1 bind?
Result: no binding

From EP4509523A1 (Deutsches Primatenzentrum GmbH (DPZ), dated 2025)
